Patent publication US20070160658A1, “Delivery system for diagnostic and therapeutic agents” (The Penn State Research Foundation, priority 2005, published 2007)

Target: T1, IL-13Rα2 (Homo sapiens, UniProt Q14627)
T1 sequence (Q14627 27-380): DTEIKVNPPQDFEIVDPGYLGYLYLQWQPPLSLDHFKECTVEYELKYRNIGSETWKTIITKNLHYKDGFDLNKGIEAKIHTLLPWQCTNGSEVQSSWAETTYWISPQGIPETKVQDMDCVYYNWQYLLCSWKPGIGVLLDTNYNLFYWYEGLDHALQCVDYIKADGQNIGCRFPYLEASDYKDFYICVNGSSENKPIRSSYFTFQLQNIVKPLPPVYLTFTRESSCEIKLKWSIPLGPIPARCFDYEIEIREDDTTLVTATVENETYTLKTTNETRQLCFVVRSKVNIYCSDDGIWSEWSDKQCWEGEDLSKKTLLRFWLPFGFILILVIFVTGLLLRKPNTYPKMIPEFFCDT
Experiment: titered cytotoxicity neutralization assay against IL13-PE38QQR cytotoxin
Format: cell-based
Settings: protein 100 ng/ml; cytotoxin IL13-PE38QQR fixed at 10 ng/ml
Experimental: Additionally, position K105 of this region of IL-13 is mutated into a variety of amino acids and the mutants' cytotoxic neutralization potential and binding affinity towards IL-13Rα2 is determined. […] In this titered cytotoxicity neutralization experiment, higher neutralization efficiency against the IL13-PE38QQR cytotoxin, for the mutant IL13.K105R is observed (Madhankumar A. B., Mintz, A., and Debinski, W. (2004) Neoplasia (New York) 6, 15-22). IL13.K105R is able to neutralize the cytotoxicity to 99% at 100 ng/ml concentration when compared with its blocking efficiency at 1000 ng/ml concentration. However, the wild type IL-13 and the mutant IL13.K106R and IL13.R109K have only 86.5%, 86.7% and 80.7% of the cytotoxicity neutralization efficiency with respect to their neutralization efficiency at 1000 ng/ml concentration. […] The high affinity mutant IL13.K105R is used as a ligand to conjugate to liposomes in order to better target the glioma associated IL-13Rα2 receptor.

Substance | cytotoxicity neutralization efficiency with respect to neutralization efficiency at 1000 ng/ml [%]
IL13.K106R: mutant of IL-13 at position 106 | 86.7
wild type IL-13: human cytokine interleukin-13, wild type | 86.5
